Reference: paper PMC2610409

Molecular target: RAD18-CFP (human) (UniProt Q9NS91)
Assay: FRET or BRET

Sequence of UniProt Q9NS91 (Q9NS91 whole entry): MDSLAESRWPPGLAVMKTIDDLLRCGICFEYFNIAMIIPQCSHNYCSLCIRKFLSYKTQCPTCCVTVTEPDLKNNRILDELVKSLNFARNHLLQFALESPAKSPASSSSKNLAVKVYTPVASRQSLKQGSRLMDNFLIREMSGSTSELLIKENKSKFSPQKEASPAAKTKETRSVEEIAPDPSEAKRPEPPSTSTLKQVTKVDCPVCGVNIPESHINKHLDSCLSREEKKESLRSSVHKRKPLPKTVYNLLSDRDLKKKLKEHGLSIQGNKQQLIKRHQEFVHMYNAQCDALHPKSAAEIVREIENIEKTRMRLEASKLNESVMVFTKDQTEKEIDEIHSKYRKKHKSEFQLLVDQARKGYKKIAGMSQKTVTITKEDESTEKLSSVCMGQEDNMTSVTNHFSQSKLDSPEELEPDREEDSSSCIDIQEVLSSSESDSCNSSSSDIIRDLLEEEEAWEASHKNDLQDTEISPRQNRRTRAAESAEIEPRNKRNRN

Substance: RAD6A-YFP (from UniProt P49459 1-152) (natural protein)
- FRET efficiency: 72%
